{"source": "patent US10131702B2", "about": "“Glucagon-GLP-1-GIP triple agonist compounds” (priority 2013, dated 2018)", "binders": {"B1": {"name": "Compound 13 (peptide)", "peptide": "YAQGTFTSDYSIYLDSKAAHDFVEWLLSAGPSSGAPPPS", "HELM": "PEPTIDE1{Y.[Aib].Q.G.T.F.T.S.D.Y.S.I.Y.L.D.S.K.A.A.H.D.F.V.E.W.L.L.S.A.G.P.S.S.G.A.P.P.P.S.[am]}$$$$V2.0", "SMILES": "CC[C@H](C)[C@H](NC(=O)[C@H](CO)NC(=O)[C@H](Cc1ccc(O)cc1)NC(=O)[C@H](CC(=O)O)NC(=O)[C@H](CO)NC(=O)[C@@H](NC(=O)[C@H](Cc1ccccc1)NC(=O)[C@@H](NC(=O)CNC(=O)[C@H](CCC(N)=O)NC(=O)C(C)(C)NC(=O)[C@@H](N)Cc1ccc(O)cc1)[C@@H](C)O)[C@@H](C)O)C(=O)N[C@@H](Cc1ccc(O)cc1)C(=O)N[C@@H](CC(C)C)C(=O)N[C@@H](CC(=O)O)C(=O)N[C@@H](CO)C(=O)N[C@@H](CCCCN)C(=O)N[C@@H](C)C(=O)N[C@@H](C)C(=O)N[C@@H](Cc1c[nH]cn1)C(=O)N[C@@H](CC(=O)O)C(=O)N[C@@H](Cc1ccccc1)C(=O)N[C@H](C(=O)N[C@@H](CCC(=O)O)C(=O)N[C@@H](Cc1c[nH]c2ccccc12)C(=O)N[C@@H](CC(C)C)C(=O)N[C@@H](CC(C)C)C(=O)N[C@@H](CO)C(=O)N[C@@H](C)C(=O)NCC(=O)N1CCC[C@H]1C(=O)N[C@@H](CO)C(=O)N[C@@H](CO)C(=O)NCC(=O)N[C@@H](C)C(=O)N1CCC[C@H]1C(=O)N1CCC[C@H]1C(=O)N1CCC[C@H]1C(=O)N[C@@H](CO)C(N)=O)C(C)C"}, "B2": {"name": "Compound 11 (peptide)", "peptide": "YAQGTFTSDYSIYLDSKAAHDFVNWLLSA", "HELM": "PEPTIDE1{Y.[Aib].Q.G.T.F.T.S.D.Y.S.I.Y.L.D.S.K.A.A.H.D.F.V.N.W.L.L.S.A.[am]}$$$$V2.0", "SMILES": "CC[C@H](C)[C@H](NC(=O)[C@H](CO)NC(=O)[C@H](Cc1ccc(O)cc1)NC(=O)[C@H](CC(=O)O)NC(=O)[C@H](CO)NC(=O)[C@@H](NC(=O)[C@H](Cc1ccccc1)NC(=O)[C@@H](NC(=O)CNC(=O)[C@H](CCC(N)=O)NC(=O)C(C)(C)NC(=O)[C@@H](N)Cc1ccc(O)cc1)[C@@H](C)O)[C@@H](C)O)C(=O)N[C@@H](Cc1ccc(O)cc1)C(=O)N[C@@H](CC(C)C)C(=O)N[C@@H](CC(=O)O)C(=O)N[C@@H](CO)C(=O)N[C@@H](CCCCN)C(=O)N[C@@H](C)C(=O)N[C@@H](C)C(=O)N[C@@H](Cc1c[nH]cn1)C(=O)N[C@@H](CC(=O)O)C(=O)N[C@@H](Cc1ccccc1)C(=O)N[C@H](C(=O)N[C@@H](CC(N)=O)C(=O)N[C@@H](Cc1c[nH]c2ccccc12)C(=O)N[C@@H](CC(C)C)C(=O)N[C@@H](CC(C)C)C(=O)N[C@@H](CO)C(=O)N[C@@H](C)C(N)=O)C(C)C"}, "B3": {"name": "Compound 12 (peptide)", "peptide": "YAQGTFTSDYSIYLDSKAAHDFVEWLLRA", "HELM": "PEPTIDE1{Y.[Aib].Q.G.T.F.T.S.D.Y.S.I.Y.L.D.S.K.A.A.H.D.F.V.E.W.L.L.R.A.[am]}$$$$V2.0", "SMILES": "CC[C@H](C)[C@H](NC(=O)[C@H](CO)NC(=O)[C@H](Cc1ccc(O)cc1)NC(=O)[C@H](CC(=O)O)NC(=O)[C@H](CO)NC(=O)[C@@H](NC(=O)[C@H](Cc1ccccc1)NC(=O)[C@@H](NC(=O)CNC(=O)[C@H](CCC(N)=O)NC(=O)C(C)(C)NC(=O)[C@@H](N)Cc1ccc(O)cc1)[C@@H](C)O)[C@@H](C)O)C(=O)N[C@@H](Cc1ccc(O)cc1)C(=O)N[C@@H](CC(C)C)C(=O)N[C@@H](CC(=O)O)C(=O)N[C@@H](CO)C(=O)N[C@@H](CCCCN)C(=O)N[C@@H](C)C(=O)N[C@@H](C)C(=O)N[C@@H](Cc1c[nH]cn1)C(=O)N[C@@H](CC(=O)O)C(=O)N[C@@H](Cc1ccccc1)C(=O)N[C@H](C(=O)N[C@@H](CCC(=O)O)C(=O)N[C@@H](Cc1c[nH]c2ccccc12)C(=O)N[C@@H](CC(C)C)C(=O)N[C@@H](CC(C)C)C(=O)N[C@@H](CCCNC(=N)N)C(=O)N[C@@H](C)C(N)=O)C(C)C"}, "B4": {"name": "Compound 17 (peptide)", "peptide": "YAQGTFTSDYSIYLDEKAAKDFVEWLLSA", "HELM": "PEPTIDE1{Y.[Aib].Q.G.T.F.T.S.D.Y.S.I.Y.L.D.E.K.A.A.K.D.F.V.E.W.L.L.S.A.[am]}$$$$V2.0", "SMILES": "CC[C@H](C)[C@H](NC(=O)[C@H](CO)NC(=O)[C@H](Cc1ccc(O)cc1)NC(=O)[C@H](CC(=O)O)NC(=O)[C@H](CO)NC(=O)[C@@H](NC(=O)[C@H](Cc1ccccc1)NC(=O)[C@@H](NC(=O)CNC(=O)[C@H](CCC(N)=O)NC(=O)C(C)(C)NC(=O)[C@@H](N)Cc1ccc(O)cc1)[C@@H](C)O)[C@@H](C)O)C(=O)N[C@@H](Cc1ccc(O)cc1)C(=O)N[C@@H](CC(C)C)C(=O)N[C@@H](CC(=O)O)C(=O)N[C@@H](CCC(=O)O)C(=O)N[C@@H](CCCCN)C(=O)N[C@@H](C)C(=O)N[C@@H](C)C(=O)N[C@@H](CCCCN)C(=O)N[C@@H](CC(=O)O)C(=O)N[C@@H](Cc1ccccc1)C(=O)N[C@H](C(=O)N[C@@H](CCC(=O)O)C(=O)N[C@@H](Cc1c[nH]c2ccccc12)C(=O)N[C@@H](CC(C)C)C(=O)N[C@@H](CC(C)C)C(=O)N[C@@H](CO)C(=O)N[C@@H](C)C(N)=O)C(C)C"}, "B5": {"name": "Compound 18 (peptide)", "peptide": "YAQGTFTSDYSIYLESKAAHDFVEWLLSA", "HELM": "PEPTIDE1{Y.[Aib].Q.G.T.F.T.S.D.Y.S.I.Y.L.E.S.K.A.A.H.D.F.V.E.W.L.L.S.A.[am]}$$$$V2.0", "SMILES": "CC[C@H](C)[C@H](NC(=O)[C@H](CO)NC(=O)[C@H](Cc1ccc(O)cc1)NC(=O)[C@H](CC(=O)O)NC(=O)[C@H](CO)NC(=O)[C@@H](NC(=O)[C@H](Cc1ccccc1)NC(=O)[C@@H](NC(=O)CNC(=O)[C@H](CCC(N)=O)NC(=O)C(C)(C)NC(=O)[C@@H](N)Cc1ccc(O)cc1)[C@@H](C)O)[C@@H](C)O)C(=O)N[C@@H](Cc1ccc(O)cc1)C(=O)N[C@@H](CC(C)C)C(=O)N[C@@H](CCC(=O)O)C(=O)N[C@@H](CO)C(=O)N[C@@H](CCCCN)C(=O)N[C@@H](C)C(=O)N[C@@H](C)C(=O)N[C@@H](Cc1c[nH]cn1)C(=O)N[C@@H](CC(=O)O)C(=O)N[C@@H](Cc1ccccc1)C(=O)N[C@H](C(=O)N[C@@H](CCC(=O)O)C(=O)N[C@@H](Cc1c[nH]c2ccccc12)C(=O)N[C@@H](CC(C)C)C(=O)N[C@@H](CC(C)C)C(=O)N[C@@H](CO)C(=O)N[C@@H](C)C(N)=O)C(C)C"}, "B6": {"name": "Compound 14 (peptide)", "peptide": "YAQGTFTSDYSIYLEKKAAHDFVEWLLSA", "HELM": "PEPTIDE1{Y.[Aib].Q.G.T.F.T.S.D.Y.S.I.Y.L.E.K.K.A.A.H.D.F.V.E.W.L.L.S.A.[am]}$$$$V2.0", "SMILES": "CC[C@H](C)[C@H](NC(=O)[C@H](CO)NC(=O)[C@H](Cc1ccc(O)cc1)NC(=O)[C@H](CC(=O)O)NC(=O)[C@H](CO)NC(=O)[C@@H](NC(=O)[C@H](Cc1ccccc1)NC(=O)[C@@H](NC(=O)CNC(=O)[C@H](CCC(N)=O)NC(=O)C(C)(C)NC(=O)[C@@H](N)Cc1ccc(O)cc1)[C@@H](C)O)[C@@H](C)O)C(=O)N[C@@H](Cc1ccc(O)cc1)C(=O)N[C@@H](CC(C)C)C(=O)N[C@@H](CCC(=O)O)C(=O)N[C@@H](CCCCN)C(=O)N[C@@H](CCCCN)C(=O)N[C@@H](C)C(=O)N[C@@H](C)C(=O)N[C@@H](Cc1c[nH]cn1)C(=O)N[C@@H](CC(=O)O)C(=O)N[C@@H](Cc1ccccc1)C(=O)N[C@H](C(=O)N[C@@H](CCC(=O)O)C(=O)N[C@@H](Cc1c[nH]c2ccccc12)C(=O)N[C@@H](CC(C)C)C(=O)N[C@@H](CC(C)C)C(=O)N[C@@H](CO)C(=O)N[C@@H](C)C(N)=O)C(C)C"}}, "data": [{"biological_target": "T1, human glucagon receptor (human, UniProt P47871 26-477)", "T1 sequence (P47871 26-477)": "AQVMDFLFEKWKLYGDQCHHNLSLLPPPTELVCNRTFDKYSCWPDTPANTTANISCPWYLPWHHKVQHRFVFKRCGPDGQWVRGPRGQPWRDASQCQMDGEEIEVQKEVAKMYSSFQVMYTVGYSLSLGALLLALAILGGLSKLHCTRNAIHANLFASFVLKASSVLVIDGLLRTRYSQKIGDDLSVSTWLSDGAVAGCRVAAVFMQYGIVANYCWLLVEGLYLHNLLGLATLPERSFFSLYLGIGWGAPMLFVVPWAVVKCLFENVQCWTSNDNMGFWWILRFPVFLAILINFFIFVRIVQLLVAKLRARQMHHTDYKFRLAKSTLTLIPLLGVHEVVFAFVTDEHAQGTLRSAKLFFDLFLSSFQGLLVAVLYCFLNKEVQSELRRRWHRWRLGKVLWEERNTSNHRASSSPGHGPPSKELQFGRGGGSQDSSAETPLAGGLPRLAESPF", "experiment": "cell-based or functional assay", "units": {"EC50 (cAMP induction)": "nM"}, "values": [{"binder": "B1", "EC50 (cAMP induction)": 0.24}, {"binder": "B2", "EC50 (cAMP induction)": 0.11}, {"binder": "B3", "EC50 (cAMP induction)": 0.076}, {"binder": "B4", "EC50 (cAMP induction)": 0.16}, {"binder": "B5", "EC50 (cAMP induction)": 0.15}, {"binder": "B6", "EC50 (cAMP induction)": 0.1}]}, {"biological_target": "T2, human GIP receptor (human, UniProt P48546 22-466)", "T2 sequence": "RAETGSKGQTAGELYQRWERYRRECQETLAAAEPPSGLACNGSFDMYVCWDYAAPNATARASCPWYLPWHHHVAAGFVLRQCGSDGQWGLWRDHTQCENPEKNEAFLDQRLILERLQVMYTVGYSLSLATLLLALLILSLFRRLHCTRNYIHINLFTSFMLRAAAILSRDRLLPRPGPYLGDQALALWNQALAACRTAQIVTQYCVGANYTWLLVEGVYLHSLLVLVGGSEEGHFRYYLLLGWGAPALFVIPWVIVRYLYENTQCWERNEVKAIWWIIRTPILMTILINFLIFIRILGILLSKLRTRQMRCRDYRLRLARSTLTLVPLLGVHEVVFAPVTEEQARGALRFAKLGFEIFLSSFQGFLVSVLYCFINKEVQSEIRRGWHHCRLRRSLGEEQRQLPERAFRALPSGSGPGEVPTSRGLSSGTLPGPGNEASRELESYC", "experiment": "cell-based or functional assay", "units": {"EC50 (cAMP induction)": "nM"}, "values": [{"binder": "B1", "EC50 (cAMP induction)": 0.01}, {"binder": "B2", "EC50 (cAMP induction)": 0.02}, {"binder": "B3", "EC50 (cAMP induction)": 0.012}, {"binder": "B4", "EC50 (cAMP induction)": 0.013}, {"binder": "B5", "EC50 (cAMP induction)": 0.021}, {"binder": "B6", "EC50 (cAMP induction)": 0.013}]}, {"biological_target": "T3, human glucagon-like peptide 1 receptor (human, UniProt P43220 24-463)", "experiment": "cell-based or functional assay", "units": {"EC50 (cAMP induction)": "nM"}, "values": [{"binder": "B1", "EC50 (cAMP induction)": 0.24}, {"binder": "B2", "EC50 (cAMP induction)": 0.11}, {"binder": "B3", "EC50 (cAMP induction)": 0.076}, {"binder": "B4", "EC50 (cAMP induction)": 0.16}, {"binder": "B5", "EC50 (cAMP induction)": 0.15}, {"binder": "B6", "EC50 (cAMP induction)": 0.1}]}, {"biological_target": "T1, human glucagon receptor", "experiment": "cell-based or functional assay", "remark": "another data set of the same source", "units": {"EC50 (cAMP induction)": "nM"}, "values": [{"binder": "B1", "EC50 (cAMP induction)": 0.24}, {"binder": "B2", "EC50 (cAMP induction)": 0.11}, {"binder": "B3", "EC50 (cAMP induction)": 0.076}, {"binder": "B4", "EC50 (cAMP induction)": 0.16}, {"binder": "B5", "EC50 (cAMP induction)": 0.15}, {"binder": "B6", "EC50 (cAMP induction)": 0.1}]}, {"biological_target": "T2, human GIP receptor", "experiment": "cell-based or functional assay", "remark": "another data set of the same source", "units": {"EC50 (cAMP induction)": "nM"}, "values": [{"binder": "B1", "EC50 (cAMP induction)": 0.083}, {"binder": "B2", "EC50 (cAMP induction)": 0.28}, {"binder": "B3", "EC50 (cAMP induction)": 0.084}, {"binder": "B4", "EC50 (cAMP induction)": 0.091}, {"binder": "B5", "EC50 (cAMP induction)": 0.07}, {"binder": "B6", "EC50 (cAMP induction)": 0.06}]}, {"biological_target": "T3, human glucagon-like peptide 1 receptor", "experiment": "cell-based or functional assay", "remark": "another data set of the same source", "units": {"EC50 (cAMP induction)": "nM"}, "values": [{"binder": "B1", "EC50 (cAMP induction)": 0.0099}, {"binder": "B2", "EC50 (cAMP induction)": 0.02}, {"binder": "B3", "EC50 (cAMP induction)": 0.012}, {"binder": "B4", "EC50 (cAMP induction)": 0.011}, {"binder": "B5", "EC50 (cAMP induction)": 0.021}, {"binder": "B6", "EC50 (cAMP induction)": 0.013}]}]}
